Laboratory results taken from US20170240645A1 (Genentech, published 2017).

Tests used:
[1] = target: T1, mouse PMEL17 with an N-terminal gD tag (mouse, UniProt Q60696 26-626); experiment: FACS, 293S cells stably transfected with gD tagged PMEL17, 10 µg/ml 17A9
T1 construct: On stably transfected 293S cells; also called N-terminal gD tagged PMEL17 (mouse)
T1 sequence: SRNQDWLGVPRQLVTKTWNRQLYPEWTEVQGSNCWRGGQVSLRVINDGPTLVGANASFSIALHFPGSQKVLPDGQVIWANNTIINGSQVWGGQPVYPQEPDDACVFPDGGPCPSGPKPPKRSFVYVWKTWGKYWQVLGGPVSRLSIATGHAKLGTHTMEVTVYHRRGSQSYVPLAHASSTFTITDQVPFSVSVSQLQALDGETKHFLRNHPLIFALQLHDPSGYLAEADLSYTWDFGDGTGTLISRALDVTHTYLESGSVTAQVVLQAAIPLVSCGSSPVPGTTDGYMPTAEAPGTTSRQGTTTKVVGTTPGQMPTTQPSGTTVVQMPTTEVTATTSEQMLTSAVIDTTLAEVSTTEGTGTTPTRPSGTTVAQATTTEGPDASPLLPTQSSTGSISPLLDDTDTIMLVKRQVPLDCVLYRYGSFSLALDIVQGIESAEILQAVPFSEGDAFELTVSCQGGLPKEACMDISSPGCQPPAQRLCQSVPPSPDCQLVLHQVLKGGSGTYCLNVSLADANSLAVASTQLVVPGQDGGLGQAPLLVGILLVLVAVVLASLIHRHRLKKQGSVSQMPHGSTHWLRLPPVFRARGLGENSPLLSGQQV
Experimental: (§1) Antibody 17A9 was tested to determine if it cross-reacts with PMEL17 from species other than human. […] All of the sequences include the signal sequence except for the cynomolgus monkey PMEL17. Residues that are identical among all four species are indicated by asterisks (*). In the region where the rat sequence has a deletion, residues that are identical among the remaining three species are indicated by a plus (+). Binding to each species of PMEL17 was determined by FACS analysis using 293S cells stably transfected with an N-terminal gD tagged PMEL17 (human, cynomolgus monkey, rat, or mouse PMEL17); stained with 10 μg/ml 17A9 antibody; and detected with R-Phycoerythrin conjugated goat anti-mouse antibody.

[2] = target: T2, cynomolgus monkey PMEL17 with an N-terminal gD tag (cynomolgus monkey, UniProt P40967 25-661 (human entry)); experiment: as above
T2 construct: On stably transfected 293S cells; also called N-terminal gD tagged PMEL17 (cynomolgus monkey)
T2 chain: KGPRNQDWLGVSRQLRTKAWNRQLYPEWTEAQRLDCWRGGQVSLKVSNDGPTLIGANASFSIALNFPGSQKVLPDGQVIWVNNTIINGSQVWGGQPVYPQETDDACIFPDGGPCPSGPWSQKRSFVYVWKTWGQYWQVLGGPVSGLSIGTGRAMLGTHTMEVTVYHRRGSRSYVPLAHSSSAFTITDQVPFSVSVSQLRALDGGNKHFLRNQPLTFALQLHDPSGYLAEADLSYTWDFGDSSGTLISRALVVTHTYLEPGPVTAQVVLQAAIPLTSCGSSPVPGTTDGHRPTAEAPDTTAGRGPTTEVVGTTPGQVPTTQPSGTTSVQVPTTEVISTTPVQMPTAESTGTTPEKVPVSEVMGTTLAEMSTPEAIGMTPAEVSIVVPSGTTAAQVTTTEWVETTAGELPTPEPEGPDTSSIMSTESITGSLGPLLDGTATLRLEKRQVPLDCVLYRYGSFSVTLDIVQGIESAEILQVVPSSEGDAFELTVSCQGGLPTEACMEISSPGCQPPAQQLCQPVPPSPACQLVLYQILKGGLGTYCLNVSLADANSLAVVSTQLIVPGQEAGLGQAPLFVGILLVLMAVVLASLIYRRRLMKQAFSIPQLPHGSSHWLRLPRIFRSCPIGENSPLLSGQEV
Experimental: as §1

human PMEL17 = target: T3, human PMEL17 (human, UniProt P40967 25-661); experiment: FACS on live cells, hybridoma supernatant
T3 construct: Untagged PMEL17 as it occurs on melanoma cell lines, normal human melanocytes, PC3 cells stably expressing PMEL17 cDNA, and in human tissue sections; also called Melanocyte protein PMEL17
T3 sequence: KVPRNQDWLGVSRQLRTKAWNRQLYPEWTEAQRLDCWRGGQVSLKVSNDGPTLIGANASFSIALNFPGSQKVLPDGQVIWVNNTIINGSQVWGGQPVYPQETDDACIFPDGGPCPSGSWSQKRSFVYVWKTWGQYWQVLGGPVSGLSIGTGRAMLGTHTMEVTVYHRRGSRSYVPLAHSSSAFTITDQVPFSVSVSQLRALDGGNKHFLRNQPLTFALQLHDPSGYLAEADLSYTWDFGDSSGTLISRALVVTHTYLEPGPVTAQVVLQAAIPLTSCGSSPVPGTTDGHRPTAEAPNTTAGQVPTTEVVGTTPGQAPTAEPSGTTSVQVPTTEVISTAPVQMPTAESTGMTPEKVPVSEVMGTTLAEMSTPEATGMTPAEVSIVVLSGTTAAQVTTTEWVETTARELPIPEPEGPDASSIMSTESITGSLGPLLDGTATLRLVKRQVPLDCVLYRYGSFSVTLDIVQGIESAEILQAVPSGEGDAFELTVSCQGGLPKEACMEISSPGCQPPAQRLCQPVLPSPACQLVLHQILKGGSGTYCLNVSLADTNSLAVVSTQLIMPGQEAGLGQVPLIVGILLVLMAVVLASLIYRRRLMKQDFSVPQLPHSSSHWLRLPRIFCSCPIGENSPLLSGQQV
Source text: After 10-14 days, the supernatants were harvested and screened by ELISA and FACS. For FACS analysis, melanoma cell lines SK-MEL-23 (provided by Paul Robbins, Center for Cancer Research, Tumor Immunology Section), 1300mel (provided by Paul Robbins, Center for Cancer Research, Tumor Immunology Section), SKMELS (ATCC HTB-70), and UACC257 (National Cancer Institute), normal melanocytes (Invitrogen, Carlsbad, Calif.), and the prostate cancer cell line PC3 stably expressing human PMEL17 were contacted with antibody. One antibody from the PMEL17-immunized mice, designated 17A9, reacted strongly by fluorescent activated cell sorting (FACS) with live melanoma cells, normal human melanocytes and a PC3 cell line stably expressing PMEL17 cDNA, but not the parental PC3 cell line. Another antibody, 77E6, obtained from the DNA-immunized mice, was also positive by FACS, although 77E6 reacted with live cell lines expressing PMEL17 somewhat inconsistently and more weakly than 17A9.

Measured: binding result

B1: 17A9 (antibody, V domains shown)
VH: EVQLQQSGPELVKPGASMKISCKSSGYSFTRYTMNWVKQSHGKNLEWIGVINPYNGGTVYNQKFKGKATLTVDKSSSTAYMELLSLTSEDSAVYYCARTDYDGYAMDYWGQGTSVTVSS
VL: DVQITQSPSYLAASPGETITINCRATKSISKYLAWYQEQPGKTNNLLIYSGSTLQSGIPSRFSGSGSGTDFTLTISSLEPEDFAMYYCQQHNEYPYTFGSGTKLEIK
notes: Mouse monoclonal antibody from a hybridoma (mice immunized with PMEL17 ECD-Fc); also called anti-PMEL17 antibody 17A9
binds: all assays above
